# B1: 5'Cy5-HIS-SARS2-1 DNA duplex (dsDNA)
# DNA 1: AGCCTTTACCTCCATTAGCATAGACA
# DNA 2: TGTCTATGCTAATGGAGGTAAAGGCT
# Molecular target: hAGO2 (human, UniProt Q9UKV8 1-859)
# Experiment: EMSA
# Sequence of hAGO2 (Q9UKV8 whole entry): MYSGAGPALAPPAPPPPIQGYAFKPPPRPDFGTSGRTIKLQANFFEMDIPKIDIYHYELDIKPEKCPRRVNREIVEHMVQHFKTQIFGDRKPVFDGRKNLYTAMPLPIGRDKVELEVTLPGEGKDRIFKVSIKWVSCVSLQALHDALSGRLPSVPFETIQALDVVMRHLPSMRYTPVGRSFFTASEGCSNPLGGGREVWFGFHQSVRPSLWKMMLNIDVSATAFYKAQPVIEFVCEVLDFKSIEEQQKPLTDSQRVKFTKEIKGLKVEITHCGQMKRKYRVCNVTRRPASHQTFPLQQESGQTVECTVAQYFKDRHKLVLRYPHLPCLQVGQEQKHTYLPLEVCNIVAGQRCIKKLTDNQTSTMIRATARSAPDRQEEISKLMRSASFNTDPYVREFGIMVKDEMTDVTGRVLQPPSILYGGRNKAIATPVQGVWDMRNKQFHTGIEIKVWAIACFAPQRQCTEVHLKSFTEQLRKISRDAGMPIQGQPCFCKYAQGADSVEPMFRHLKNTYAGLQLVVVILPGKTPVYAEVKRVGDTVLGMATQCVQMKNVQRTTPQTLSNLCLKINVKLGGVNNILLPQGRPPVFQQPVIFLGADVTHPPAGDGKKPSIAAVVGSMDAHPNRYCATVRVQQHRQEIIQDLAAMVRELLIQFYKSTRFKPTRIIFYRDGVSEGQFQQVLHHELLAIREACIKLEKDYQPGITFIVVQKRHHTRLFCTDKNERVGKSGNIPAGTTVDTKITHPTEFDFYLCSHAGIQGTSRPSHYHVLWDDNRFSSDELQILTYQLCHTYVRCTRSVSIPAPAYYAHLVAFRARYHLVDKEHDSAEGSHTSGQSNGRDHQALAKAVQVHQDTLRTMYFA
binder,measurement,value
B1,binding result,binds
